9 molecules from article PMC3003642, “DPI-ELISA: a fast and versatile method to specify the binding of plant transcription factors to DNA in vitro” can be followed below.

For series [1], the target named is T1, AtBPC2 (Arabidopsis thaliana, UniProt Q9LDE2 1-279).
T1 sequence: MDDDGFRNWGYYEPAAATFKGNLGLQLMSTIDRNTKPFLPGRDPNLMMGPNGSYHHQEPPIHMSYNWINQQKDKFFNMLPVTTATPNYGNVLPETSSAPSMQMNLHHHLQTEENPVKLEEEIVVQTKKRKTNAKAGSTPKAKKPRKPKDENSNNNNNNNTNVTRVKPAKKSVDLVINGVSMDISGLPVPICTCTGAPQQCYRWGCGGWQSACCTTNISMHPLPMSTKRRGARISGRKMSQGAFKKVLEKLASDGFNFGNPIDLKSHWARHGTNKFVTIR
Description: competition DPI-ELISA; 100-1000 pmol competitor vs 2 pmol GABio; DPI-ELISA: 2 pmol ds-bio DNA per well, crude E. coli extract in protein extraction buffer (HEPES, 100 mM salt per Additional file 1), 1 h, PBS-T washes pH 7.5. The conditions noted are these: protein: recombinant; tags: N-terminal His (pET32b-GW). (In general: In an ELISA, binding on a coated surface is turned into a signal by an enzyme label.)

The next series concerns the target T2, AtbZIP63 (Arabidopsis thaliana, UniProt B9DGI8 1-314).
T2 sequence: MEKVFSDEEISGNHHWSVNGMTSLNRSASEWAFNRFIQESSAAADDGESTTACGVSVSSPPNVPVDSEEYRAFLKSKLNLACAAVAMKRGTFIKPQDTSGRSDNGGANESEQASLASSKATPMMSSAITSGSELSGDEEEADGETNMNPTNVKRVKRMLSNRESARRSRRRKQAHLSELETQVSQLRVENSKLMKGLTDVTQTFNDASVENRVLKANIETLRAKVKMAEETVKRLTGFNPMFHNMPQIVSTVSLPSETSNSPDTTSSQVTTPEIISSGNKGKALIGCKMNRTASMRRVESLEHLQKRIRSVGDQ
Briefly: EMSA; DPI-ELISA: 2 pmol ds-bio DNA per well, crude E. coli extract in protein extraction buffer (HEPES, 100 mM salt per Additional file 1), 1 h, PBS-T washes pH 7.5. The conditions noted are these: protein: recombinant; tags: C-terminal V5:His; chain copies: 2; label: 5' biotin (DPI-ELISA); 33P (EMSA). In general terms: Mobility shift assays separate free from complexed probe on a gel.

Series [2] has as its target T1, AtBPC2. Briefly: competition DPI-ELISA; 1000 pmol DNA reduced binding irrespective of sequence; DPI-ELISA: 2 pmol ds-bio DNA per well, crude E. coli extract in protein extraction buffer (HEPES, 100 mM salt per Additional file 1), 1 h, PBS-T washes pH 7.5. The conditions noted are these: protein: recombinant; tags: N-terminal His (pET32b-GW).
The target in series [3] is T1, AtBPC2. Description: DPI-ELISA; DPI-ELISA: 2 pmol ds-bio DNA per well, crude E. coli extract in protein extraction buffer (HEPES, 100 mM salt per Additional file 1), 1 h, PBS-T washes pH 7.5. The settings on record: protein: recombinant; tags: N-terminal His (pET32b-GW); label: 5' biotin.
For another series, the target named is AtWRKY75DBD (Arabidopsis thaliana, UniProt Q9FYA2 58-145). Briefly: DPI-ELISA; up to 100 ug crude extract (data not shown); DPI-ELISA: 2 pmol ds-bio DNA per well, crude E. coli extract in protein extraction buffer (HEPES, 100 mM salt per Additional file 1), 1 h, PBS-T washes pH 7.5. The settings on record: protein: recombinant; tags: C-terminal V5:His; label: 5' biotin (DPI-ELISA); 33P (EMSA).

The target of a further series is AtWRKY50DBD (Arabidopsis thaliana, UniProt Q8VWQ5 99-173). Description: DPI-ELISA; not corrected for protein concentration in extract; DPI-ELISA: 2 pmol ds-bio DNA per well, crude E. coli extract in protein extraction buffer (HEPES, 100 mM salt per Additional file 1), 1 h, PBS-T washes pH 7.5. The settings on record: protein: recombinant; tags: C-terminal V5:His; label: 5' biotin (DPI-ELISA); 33P (EMSA).

Series [4] addresses T3, AtWRKY33cDBD (Arabidopsis thaliana, UniProt Q8S8P5 346-449). Description: DPI-ELISA; DPI-ELISA: 2 pmol ds-bio DNA per well, crude E. coli extract in protein extraction buffer (HEPES, 100 mM salt per Additional file 1), 1 h, PBS-T washes pH 7.5. The conditions noted are these: protein: recombinant; tags: C-terminal V5:His; label: 5' biotin (DPI-ELISA); 33P (EMSA).
The target of series [5] is T4, AtWRKY11DBD (Arabidopsis thaliana, UniProt Q9SV15 229-325). Briefly: EMSA; DPI-ELISA: 2 pmol ds-bio DNA per well, crude E. coli extract in protein extraction buffer (HEPES, 100 mM salt per Additional file 1), 1 h, PBS-T washes pH 7.5. The settings on record: protein: recombinant; tags: C-terminal V5:His; label: 5' biotin (DPI-ELISA); 33P (EMSA).
The target in series [6] is T3, AtWRKY33cDBD. Description: DPI-ELISA; also at higher protein amounts (data not shown); DPI-ELISA: 2 pmol ds-bio DNA per well, crude E. coli extract in protein extraction buffer (HEPES, 100 mM salt per Additional file 1), 1 h, PBS-T washes pH 7.5. The conditions noted are these: protein: recombinant; tags: C-terminal V5:His; label: 5' biotin (DPI-ELISA); 33P (EMSA).
The target of series [7] is T4, AtWRKY11DBD. Description: competition DPI-ELISA; up to 50 pmol competitor; DPI-ELISA: 2 pmol ds-bio DNA per well, crude E. coli extract in protein extraction buffer (HEPES, 100 mM salt per Additional file 1), 1 h, PBS-T washes pH 7.5. The settings on record: protein: recombinant; tags: C-terminal V5:His.

Changes are numbered by the printed parent chain.

T4 sequence (Q9SV15 229-325): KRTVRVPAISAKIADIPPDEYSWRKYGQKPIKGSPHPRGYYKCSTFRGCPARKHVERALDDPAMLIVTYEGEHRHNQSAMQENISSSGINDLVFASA
T3 sequence (Q8S8P5 346-449): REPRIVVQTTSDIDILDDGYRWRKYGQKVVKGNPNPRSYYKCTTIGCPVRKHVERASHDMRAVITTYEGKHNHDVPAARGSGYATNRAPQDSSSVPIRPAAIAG
Chain of AtWRKY75DBD (Q9FYA2 58-145): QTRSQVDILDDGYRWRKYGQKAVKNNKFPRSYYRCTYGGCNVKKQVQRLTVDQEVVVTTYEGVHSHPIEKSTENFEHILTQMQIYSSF
Chain of AtWRKY50DBD (Q8VWQ5 99-173): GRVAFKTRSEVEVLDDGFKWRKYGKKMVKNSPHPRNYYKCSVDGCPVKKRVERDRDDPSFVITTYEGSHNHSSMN

B1: GA-probe, non-biotinylated competitor (dsDNA)
DNA 1: TAAAGGAGAAAGAAAGAGAAAGAGAGTTTC
DNA 2: GAAACTCTCTTTCTCTTTCTTTCTCCTTTA
With B1, in the series with AtBPC2 [1], the binding result is listed as “binds”.

B2: Cm-probe (dsDNA)
DNA 1: AATTCTCCCTTATCTGCAGTCAGCATCCGG
DNA 2: CCGGATGCTGACTGCAGATAAGGGAGAATT
Take B2: the binding result with AtbZIP63 is on record as “no binding”.

B3: C-probe (C-box) (dsDNA)
DNA 1: B2 DNA 1 with C17A, A18C
DNA 2: B2 DNA 2 with T13G, G14T
In the case of B3, the binding result with AtbZIP63 is given as “binds”.

B4: GAm-probe, non-biotinylated competitor (dsDNA)
DNA 1: TAATGCAGCAAGTAAGACTACGACTGTTTC
DNA 2: GAAACAGTCGTAGTCTTACTTGCTGCATTA
Consider B4, for which the binding result in the series with AtBPC2 [2] is recorded as “no binding”.

B5: GAm-probe (GAmBio) (dsDNA)
DNA 1: B4 DNA 1
DNA 2: B4 DNA 2
B5: in the series with AtBPC2 [3], the binding result is reported as “no binding”.

B6: W2-probe (W2Bio) (dsDNA)
DNA 1: AAATTATTCAGCCATCAAAAGTTGACCAATAAT
DNA 2: ATTATTGGTCAACTTTTGATGGCTGAATAATTT
Consider B6, for which the binding result with AtWRKY75DBD is recorded as “no binding”; with AtWRKY33cDBD [4], “binds”. Besides, the binding signal with AtWRKY50DBD is > 2 fold absorbance vs AtWRKY33cDBD.

B7: W2m-probe (W2mBio) (dsDNA)
DNA 1: B6 DNA 1 with G24A, A25C
DNA 2: B6 DNA 2 with T9G, C10T
As for B7, the binding result with AtWRKY11DBD [5], with AtWRKY75DBD and with AtWRKY33cDBD [6] was “no binding” throughout.

B8: W2m-probe, non-biotinylated competitor (dsDNA)
DNA 1: B6 DNA 1 with G24A, A25C
DNA 2: B6 DNA 2 with T9G, C10T
B8: in the series with AtWRKY11DBD [7], the binding result is reported as “no binding”.

B9: GA-probe (GABio) (dsDNA)
DNA 1: B1 DNA 1
DNA 2: B1 DNA 2
Turning to B9, the binding result with AtBPC2 [3] is given as “binds”.
